Experimental findings from patent US20150119341A1 are described below.

The target in test [1] is recombinant human melanocortin-1 receptor (hMCR-1a) in membrane homogenates of HEK-293 cells (human) (UniProt Q01726). Nature of the test: competitive inhibition of [I125]-NDP-alpha-MSH, hMCR-1 HEK-293 membranes.
Test [2] concerns the target recombinant human melanocortin-4 receptor (hMCR-4) in membrane homogenates of HEK-293 cells (human) (UniProt P32245). Nature of the test: competitive inhibition of [I125]-NDP-alpha-MSH, hMCR-4 HEK-293 membranes.

pKi: −log10 of the molar value. [ ]: non-standard residue; d: D form. Nle = CCCC[C@H](N)C(=O)O

Sequence of recombinant human melanocortin-4 receptor (hMCR-4) in membrane homogenates of HEK-293 cells (human) (P32245 whole entry): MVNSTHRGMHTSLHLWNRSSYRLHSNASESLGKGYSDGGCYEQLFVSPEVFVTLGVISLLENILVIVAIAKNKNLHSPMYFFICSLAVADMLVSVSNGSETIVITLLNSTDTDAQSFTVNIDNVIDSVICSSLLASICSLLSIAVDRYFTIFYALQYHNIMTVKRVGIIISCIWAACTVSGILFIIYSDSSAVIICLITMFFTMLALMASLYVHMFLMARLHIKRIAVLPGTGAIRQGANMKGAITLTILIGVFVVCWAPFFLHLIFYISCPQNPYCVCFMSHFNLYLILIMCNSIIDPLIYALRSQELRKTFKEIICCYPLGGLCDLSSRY
Sequence of recombinant human melanocortin-1 receptor (hMCR-1a) in membrane homogenates of HEK-293 cells (human) (Q01726 whole entry): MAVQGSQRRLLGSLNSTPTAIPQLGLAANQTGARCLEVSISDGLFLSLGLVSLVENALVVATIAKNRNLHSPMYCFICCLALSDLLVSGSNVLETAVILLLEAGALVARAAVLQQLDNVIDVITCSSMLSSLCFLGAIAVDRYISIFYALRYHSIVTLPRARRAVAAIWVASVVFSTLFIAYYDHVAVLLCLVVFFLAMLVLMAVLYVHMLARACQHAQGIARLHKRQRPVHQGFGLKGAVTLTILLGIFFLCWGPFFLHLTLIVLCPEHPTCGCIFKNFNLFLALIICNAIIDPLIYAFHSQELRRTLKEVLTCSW

On to Ac-[Nle]AH[dF]R[dP][dW]-NH2, for which the values for the pKi in test [1] and in test [2] were 7.70 and 5.00, respectively.
In the same order, the values of Ac-[Nle][dF]RAW-NH2 are 5.89 and 5.15.

By pKi is commonly meant the negative decadic logarithm of the Ki, by convention in mol/L.
